84 variants from the RNAGym collection of RNA variant scans (doi:10.1073/pnas.2313332121) can be followed below.

The chains are these.
B1: TPR 5TU (parent)
chain: GGAUCUUCUCGAUCUAACAAAAAAGACAAAUCUGCCACAAAGCUUGAGAGCAUCUUCGGAUGCAGAGGCGGCAGCCUUCGGUGGCGCGAUAGCGCCAACGUUCUCAACUAUGACACGCAAAACGCGUGCUCCGUUGAAUGGAGUUUAUCAUG

Variants at the floor of the assay were thinned out.

The variants in the series derive from B1. Kind of series: polymerase ribozyme fitness, log enrichment relative to wild type (log ratio); higher = more active; in vitro selection for triplet polymerase activity. The method, boiled down:
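Libraries of mutants in each subunit of a heterodimeric triplet polymerase ribozyme were generated by PCR and transcribed. In triplicate, each went through one in vitro selection round: annealing with biotinylated primer, partner subunit and triplets; frozen incubation at −7 °C; gel excision of extended constructs; streptavidin-bead capture; RT-PCR. Fitness, taken from Illumina sequencing of input and output libraries, is the logarithm of a genotype's enrichment over wild-type enrichment, averaged across replicates with inverse-variance weights. The logarithm is base 2, and genotypes needed ≥10 input reads and ≥1 read per output to be kept.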
In the case of A17U A28C U31A, the “polymerase ribozyme fitness (log ratio)” value is -3.71.
In the case of C18G A19C U33G C36U G46A C87U A110G it was at most -4.2; in that of A19C A22U C57G C87U G94U C103G U104G C129A, at most -4.2.
In the case of A17C G25C A30G U45A A49C G124U it was -4.16; in that of C18U A60U G92U C93U C95U C125U, -4.09.
For A16U A37C A52G G84A G140C, the “polymerase ribozyme fitness (log ratio)” value was at most -4.2.
In the case of C18U C36U C75A C79U C118A C131U it was at most -4.2; in that of A16U C116A G136A G140C, at most -4.2.
For A17C U53G G62U G117U, the “polymerase ribozyme fitness (log ratio)” value is -2.27.
The result for C18G A21U reads -0.776; that for C18A A20U G25C G83A C87U U145A C149A, at most -4.2.
In the case of A16U A22U A52C C87A A107C C125A U134C it was at most -4.2; in that of A17C A64C G83U, at most -4.2; in that of C18G A29U U44G U55G C57A C93U U104G, at most -4.2.
The result for C18G U82C C85A A142C reads -2.92.
On to A17C A39G U44G C63A A73G A113G A121U G141A, for which the “polymerase ribozyme fitness (log ratio)” value is at most -4.2.
Consider C18U C95U, for which the “polymerase ribozyme fitness (log ratio)” value was -0.678.
For the variant A17G A21U A49C G59C G74U C85G C116U U134A, the “polymerase ribozyme fitness (log ratio)” value was at most -4.2.
As to A17U A41C G83C A97U U127A A138U A150C, the “polymerase ribozyme fitness (log ratio)” value was at most -4.2.
For the variant A17C U31G C76A C95G, the “polymerase ribozyme fitness (log ratio)” value is at most -4.2.
For the variant A17G A47C U130A, the “polymerase ribozyme fitness (log ratio)” value was -4.1.
In the case of A17G U33G G50U A52U G86C C105U A106C C125A it was at most -4.2.
The result for C18A A20U A47G A52C G65A G83U U101C G136U reads at most -4.2.
Turning to A16U G84U, the “polymerase ribozyme fitness (log ratio)” value is -3.5.
Consider A17G C27G C43U C87G A89C U109A A147U, for which the “polymerase ribozyme fitness (log ratio)” value was at most -4.2.
As for A17G A41U C54U A73G, the “polymerase ribozyme fitness (log ratio)” value is -1.46.
Consider A17U A40U A113C A115C C131U, for which the “polymerase ribozyme fitness (log ratio)” value was at most -4.2.
Regarding A17U A24C C32A G100A, the “polymerase ribozyme fitness (log ratio)” value is at most -4.2.
In the case of A17U C76A A122G, the “polymerase ribozyme fitness (log ratio)” value was -0.419.
Consider A16U U31G G50A G58A C85U U104G A106U U134A, for which the “polymerase ribozyme fitness (log ratio)” value was at most -4.2.
With A17C U33C G42U U44A U56G, the “polymerase ribozyme fitness (log ratio)” value is at most -4.2.
The result for A17C A24U G48C A89G C93G G128U reads at most -4.2; that for A17U G126A, 0.557.
In the case of A16U C93A, the “polymerase ribozyme fitness (log ratio)” value is -3.85.
Regarding C18G C123G, the “polymerase ribozyme fitness (log ratio)” value was -0.253.
In the case of A17G G42U C51U C96U C108U it was at most -4.2.
Take A17U U127A: the “polymerase ribozyme fitness (log ratio)” value is -3.29.
The result for A16U A52C reads -2.96; that for A17G C75A C87A A91C A115U G140U, at most -4.2; that for A17U A39C G80A G86U G117U U144C U148G, at most -4.2.
Consider A19C A106C, for which the “polymerase ribozyme fitness (log ratio)” value was determined as 0.458.
The result for A17U U53A reads -0.974; that for A16U U56A A60U G141U, -2.12; that for A17U C69U U77C C87U, at most -4.2.
With A17G A39U G94U G141A, the “polymerase ribozyme fitness (log ratio)” value is -4.08.
In the case of A17U G42C G59A C69U C96G G141A U146C it was at most -4.2.
As to C18U A40U C85U C96U C116U, the “polymerase ribozyme fitness (log ratio)” value was found to be 0.0691.
The result for A17U G34U C43U C63A C87A A106C C108A reads at most -4.2; that for C18U A22C A40U A89C, -0.248; that for A16U C76G G80C, at most -4.2.
In the case of A16U C96A it was -2.78.
In the case of A16U C75U G86A it was -2.59; in that of C18U C35A A39U G50U U55G C108U, at most -4.2.
As to A16U A28C U55A C69A G71A G88C U102G C123U U130G, the “polymerase ribozyme fitness (log ratio)” value is at most -4.2.
In the case of A17C C85A, the “polymerase ribozyme fitness (log ratio)” value was -2.22.
The result for A16U C18A A22U G48U U56G A66G G84U U144A reads at most -4.2; that for C18A G83A A107C A110C, at most -4.2; that for A17U C54U, -0.241.
Regarding A16U A73G A107G A119G, the “polymerase ribozyme fitness (log ratio)” value is at most -4.2.
In the case of A19C A20U C54A it was -1.03; in that of A17U A28G G34C A64C C79G U90G, at most -4.2; in that of C18U A49U, -1.09.
With C18U A19G G50A C54U G67C C69A G92C C114A A120U U134G, the “polymerase ribozyme fitness (log ratio)” value is at most -4.2.
For the variant A17U G59A C87U C93A G143U U146G, the “polymerase ribozyme fitness (log ratio)” value is at most -4.2.
For A17U A23C A37C A41C C96A G124U, the “polymerase ribozyme fitness (log ratio)” value is at most -4.2.
In the case of A17U U90A U102A U127A A137G A138C U151A it was at most -4.2; in that of C18G A21G A23C A40U G70A C79G C87G G117C, at most -4.2.
As to C18A, the “polymerase ribozyme fitness (log ratio)” value is -0.302.
The result for C18G reads -0.169.
On to C18U, for which the “polymerase ribozyme fitness (log ratio)” value is -0.399.
The result for C18U C87U C99G reads -2.1.
With C18G C57U G59A G80A G86U C108G C116U U145A C149G G152U, the “polymerase ribozyme fitness (log ratio)” value is at most -4.2.
On to C18G U53A U61A A137C, for which the “polymerase ribozyme fitness (log ratio)” value was at most -4.2.
The result for A16U C32A C35G C96A G124C U144C reads at most -4.2.
For the variant C18A A20C U53C G59U C93G U148C, the “polymerase ribozyme fitness (log ratio)” value is -4.14.
The result for C18G C32U G46C U53A C85U reads at most -4.2; that for A17C A19C U55A G94A, 1.05.
The result for C18U A29U A91U A107U reads at most -4.2; that for A17U C54U G84A, -0.832; that for C18A A73G G83C C118U A150G, at most -4.2.
A17C C116G A138G U144A: the “polymerase ribozyme fitness (log ratio)” value was at most -4.2.
Consider C18U U55A A73G G86A G94C, for which the “polymerase ribozyme fitness (log ratio)” value was at most -4.2.
The result for A17C A73G C76G U82C C85G reads at most -4.2; that for A16U A47C G59A C87G U90A U101A A113G, at most -4.2.
